Measured values as given in publication PMC9060471, “Oleic acid is an endogenous ligand of TLX/NR2E1 that triggers hippocampal neurogenesis” (Proceedings of the National Academy of Sciences of the …, 2022).

Target: T1, 6xHis-TLX ligand-binding domain (UniProt Q9Y466 155-385)
T1 construct: Construct limits, species and expression host should stand in the SI Appendix (methods); also called TLX LBD; NR2E1; source: purified
Test: AlphaScreen or HTRF; ALPHA competition experiments in the presence of saturating 18:1ω9
Details: both partners purified

T1 sequence (Q9Y466 155-385): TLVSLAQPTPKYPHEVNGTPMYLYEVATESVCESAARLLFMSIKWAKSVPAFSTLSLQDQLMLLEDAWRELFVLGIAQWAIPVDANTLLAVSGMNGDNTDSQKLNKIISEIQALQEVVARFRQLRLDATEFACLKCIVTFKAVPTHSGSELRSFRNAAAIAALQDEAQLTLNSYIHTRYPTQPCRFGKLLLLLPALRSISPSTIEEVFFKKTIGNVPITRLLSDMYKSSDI

B1: receptor-interaction domain from NCOA3 (domain or fragment, UniProt Q9Y6Q9 621-821, looked up)
chain: LLQLLTCSSDDRGHSSLTNSPLDSSCKESSVSVTSPSGVSSSTSGGVSSTSNMHGSLLQEKHRILHKLLQNGNSPAEVAKITAEATGKDTSSITSCGDGNVVKQEQLSPKKKENNALLRYLLDRDDPSDALSKELQPQVEGVDNKMSQCTSSTIPSSSQEKDPKIKTETSEEGSGDLDNLDAILGDLTSSDFYNNSISSNG
notes: The methods name an AlphaScreen GST Detection Kit, so a GST fusion may have been used somewhere; see SI Appendix; also called SRC3
B1 was tested, and the “EC50 with 18:1ω9” value was 3.3 µM.
